Data set [1] deals with the molecule itself. Briefly: non-denaturing gradient PAGE (FIG. 18) and TEM; self-assembly of subunits. The procedure:
(§1) The purity of the proteins was evaluated using denaturing polyacrylamide gel electrophoresis (GeneMate 8-16% Express Gels, ISC BioExpress). The ability of each of the circular permutations to form double rings was assessed by non-denaturing 4-40% gradient polyacrylamide gel (FIG. 18) as previously described (J K Trent, et al., 1991 Nature 354:490-493).
(§2) Samples were prepared for the electron microscope by drop casting on carbon-coated formvar substrates (Ladd) and stained with 1% uranyl acetate. Samples were visualized using a Leo 912AB electron microscope in bright field TEM mode at 65 kV with a tungsten filament electron source.
(§3) Samples of the five different circular permutated chaperonin polypeptides (without the joined EYFP sequence) were analyzed at 1 hour or 24 hours after addition of 1 mM ATP and 25 mM Mg²⁺ (FIG. 19A-J). All five circular permuted chaperonins analyzed formed double rings having the same structure as wild-type chaperonin double rings, with two rings of nine subunits each (FIG. 19A-E). […] The circular permutated chaperonin polypeptides 480 and 499 formed predominantly filamentous structures. For permutants at positions 480 and 499, heating the sample to 70 degrees C. for 30 minutes immediately after addition of ATP and Mg²⁺ produced longer filaments.

Data set [2] concerns the molecule itself. The data set is described as follows: TEM, negative stain, after adding 1 mM ATP and 25 mM Mg2+; self-assembly of subunits. The procedure: as §2, §3
Data set [3] concerns the molecule itself. Briefly: summary of native PAGE and TEM; self-assembly of subunits. The procedure:
as §1, §2, §3

B1: position 480 circular permutant chaperonin protein (Sulfolobus shibatae TF55 beta subunit, termini relocated after residue 480) (other)
chain: MANKWYGLNLFTGNPEDMWKLGVIEPALVKMNAIKAATEAVTLVLRIDDIVGGSGGTIPVIILKEGSSRTYGKEALRANIAAVKAIEEALKSTYGPRGMDKILVDSLGDITITNDGATILDKMDLQHPTGKLLVQIAKGQDEETADGTKTAVILAGELAKKAEDLLYKEIHPTIIVSGYKKAEEIALKTIQDIAQPVSINDTDVLRKVALTSLGSKAVAGAREYLADLVVKAVAQVAELRGDKWYVDLDNVQIVKKHGGSINDTQLVYGIVVDKEVVHPGMPKRIENAKIALLDASLEVEKPELDAEIRINDPTQMHKFLEEEENILKEKVDKIAATGANVVIAQKGIDEVAQHYLAKKGILAVRRAKKSDLEKLARATGGRVISNIDELTSQDLGYAALVEERKVGEDKIVFVEGAKNPKSVSILIRGGLERVVDETERALRDALGTVADVIRDGRAVAGGGAVEIEIAKRLRKYAPQVGGKEQLAIEAYANAIEGLIMILAENAGLDPIDKLMQLRSLHENET
notes: Entry is the single subunit; Original termini are joined by the linker GGSGGT; Assembles into double rings with two rings of nine subunits each; also called circular permutant at position 480; permutant 480
As to B1, the binding result in data set [1] is reported as “binds”.

B2: position 499 circular permutant chaperonin protein (Sulfolobus shibatae TF55 beta subunit, termini relocated after residue 499) (other)
chain: MALGVIEPALVKMNAIKAATEAVTLVLRIDDIVGGSGGTIPVIILKEGSSRTYGKEALRANIAAVKAIEEALKSTYGPRGMDKILVDSLGDITITNDGATILDKMDLQHPTGKLLVQIAKGQDEETADGTKTAVILAGELAKKAEDLLYKEIHPTIIVSGYKKAEEIALKTIQDIAQPVSINDTDVLRKVALTSLGSKAVAGAREYLADLVVKAVAQVAELRGDKWYVDLDNVQIVKKHGGSINDTQLVYGIVVDKEVVHPGMPKRIENAKIALLDASLEVEKPELDAEIRINDPTQMHKFLEEEENILKEKVDKIAATGANVVIAQKGIDEVAQHYLAKKGILAVRRAKKSDLEKLARATGGRVISNIDELTSQDLGYAALVEERKVGEDKIVFVEGAKNPKSVSILIRGGLERVVDETERALRDALGTVADVIRDGRAVAGGGAVEIEIAKRLRKYAPQVGGKEQLAIEAYANAIEGLIMILAENAGLDPIDKLMQLRSLHENETNKWYGLNLFTGNPEDMWK
notes: Entry is the single subunit; Original termini are joined by the linker GGSGGT; Assembles into double rings with two rings of nine subunits each; also called circular permutant at position 499; permutant 499
For the protein B2, the binding result in data set [1] is “binds”.

B3: position 153 circular permutant chaperonin protein (Sulfolobus shibatae TF55 beta subunit, termini relocated after residue 153) (other)
chain: MAINDTDVLRKVALTSLGSKAVAGAREYLADLVVKAVAQVAELRGDKWYVDLDNVQIVKKHGGSINDTQLVYGIVVDKEVVHPGMPKRIENAKIALLDASLEVEKPELDAEIRINDPTQMHKFLEEEENILKEKVDKIAATGANVVIAQKGIDEVAQHYLAKKGILAVRRAKKSDLEKLARATGGRVISNIDELTSQDLGYAALVEERKVGEDKIVFVEGAKNPKSVSILIRGGLERVVDETERALRDALGTVADVIRDGRAVAGGGAVEIEIAKRLRKYAPQVGGKEQLAIEAYANAIEGLIMILAENAGLDPIDKLMQLRSLHENETNKWYGLNLFTGNPEDMWKLGVIEPALVKMNAIKAATEAVTLVLRIDDIVGGSGGTIPVIILKEGSSRTYGKEALRANIAAVKAIEEALKSTYGPRGMDKILVDSLGDITITNDGATILDKMDLQHPTGKLLVQIAKGQDEETADGTKTAVILAGELAKKAEDLLYKEIHPTIIVSGYKKAEEIALKTIQDIAQPVS
notes: Entry is the single subunit; Original termini are joined by the linker GGSGGT; also called circular permutant at position 153; permutant 153
Regarding B3, the binding result in data set [2] is given as “binds”.

B4: position 267 circular permutant chaperonin protein (Sulfolobus shibatae TF55 beta subunit, termini relocated after residue 267) (other)
chain: MADPTQMHKFLEEEENILKEKVDKIAATGANVVIAQKGIDEVAQHYLAKKGILAVRRAKKSDLEKLARATGGRVISNIDELTSQDLGYAALVEERKVGEDKIVFVEGAKNPKSVSILIRGGLERVVDETERALRDALGTVADVIRDGRAVAGGGAVEIEIAKRLRKYAPQVGGKEQLAIEAYANAIEGLIMILAENAGLDPIDKLMQLRSLHENETNKWYGLNLFTGNPEDMWKLGVIEPALVKMNAIKAATEAVTLVLRIDDIVGGSGGTIPVIILKEGSSRTYGKEALRANIAAVKAIEEALKSTYGPRGMDKILVDSLGDITITNDGATILDKMDLQHPTGKLLVQIAKGQDEETADGTKTAVILAGELAKKAEDLLYKEIHPTIIVSGYKKAEEIALKTIQDIAQPVSINDTDVLRKVALTSLGSKAVAGAREYLADLVVKAVAQVAELRGDKWYVDLDNVQIVKKHGGSINDTQLVYGIVVDKEVVHPGMPKRIENAKIALLDASLEVEKPELDAEIRIN
notes: Entry is the single subunit; Original termini are joined by the linker GGSGGT; Assembles into double rings with two rings of nine subunits each
As to B4, in data set [3], the binding result is given as “binds”.

B5: position 316 circular permutant chaperonin protein (Sulfolobus shibatae TF55 beta subunit, termini relocated after residue 316) (other)
chain: MAILAVRRAKKSDLEKLARATGGRVISNIDELTSQDLGYAALVEERKVGEDKIVFVEGAKNPKSVSILIRGGLERVVDETERALRDALGTVADVIRDGRAVAGGGAVEIEIAKRLRKYAPQVGGKEQLAIEAYANAIEGLIMILAENAGLDPIDKLMQLRSLHENETNKWYGLNLFTGNPEDMWKLGVIEPALVKMNAIKAATEAVTLVLRIDDIVGGSGGTIPVIILKEGSSRTYGKEALRANIAAVKAIEEALKSTYGPRGMDKILVDSLGDITITNDGATILDKMDLQHPTGKLLVQIAKGQDEETADGTKTAVILAGELAKKAEDLLYKEIHPTIIVSGYKKAEEIALKTIQDIAQPVSINDTDVLRKVALTSLGSKAVAGAREYLADLVVKAVAQVAELRGDKWYVDLDNVQIVKKHGGSINDTQLVYGIVVDKEVVHPGMPKRIENAKIALLDASLEVEKPELDAEIRINDPTQMHKFLEEEENILKEKVDKIAATGANVVIAQKGIDEVAQHYLAKKG
notes: Entry is the single subunit; Original termini are joined by the linker GGSGGT; Assembles into double rings with two rings of nine subunits each; also called circular permutant at position 316; permutant 316
As to B5, the binding result in data set [1] is on record as “binds”.

(Values after US20060084792A1 (UNITED STATES OF AMERICA AS REPRESENTED BY THE …, published 2006).)
